Laboratory results from PMC8939775, “Structures of the Omicron Spike trimer with ACE2 and an anti-Omicron antibody” (Science (New York, N.y.), 2022).

Biological target: T1, SARS-CoV-2 wildtype (WT) spike extracellular domain trimer (proline substitutions 2P or 6P, mutated furin … (SARS-CoV-2, UniProt P0DTC2))
T1 construct: also called WT spike trimer
Conditions: both partners purified

B1: JMB2002 IgG (antibody, V domains shown)
VH: QVQLVQSGAEVKKPGSSVKVSCKASGGTFSSYAISWVRQAPGQGLEWMGRIIPIFGTANYAQKFQGRVTITADESTSTAYMELSSLRSEDTAVYYCASLASYSSGWEDVFDIWGQGTMVTVSS
VL: DIQMTQSPSSLSASVGDRVTITCRASQGISSWLAWYQQKPGKAPKLLIYDASNLETGVPSRFSGSGSGTDFTFTISSLQPEDIATYYCQQYDNLPLTFGGGTKVEIK
notes: copies: 2 + 2
Kd: 0.5 ± 0.3 nM

B2: JMB2002 Fab (Fab, V domains shown)
VH: B1 VH
VL: B1 VL
notes: also called Fab from JMB2002
Kd: 12.2 ± 11.6 nM
